Paper PMC10522637

Target: human Toll-like receptor 5 (3xFlag-hTLR5) (human) (UniProt O60602)
Chain of UniProt O60602 (O60602 21-858): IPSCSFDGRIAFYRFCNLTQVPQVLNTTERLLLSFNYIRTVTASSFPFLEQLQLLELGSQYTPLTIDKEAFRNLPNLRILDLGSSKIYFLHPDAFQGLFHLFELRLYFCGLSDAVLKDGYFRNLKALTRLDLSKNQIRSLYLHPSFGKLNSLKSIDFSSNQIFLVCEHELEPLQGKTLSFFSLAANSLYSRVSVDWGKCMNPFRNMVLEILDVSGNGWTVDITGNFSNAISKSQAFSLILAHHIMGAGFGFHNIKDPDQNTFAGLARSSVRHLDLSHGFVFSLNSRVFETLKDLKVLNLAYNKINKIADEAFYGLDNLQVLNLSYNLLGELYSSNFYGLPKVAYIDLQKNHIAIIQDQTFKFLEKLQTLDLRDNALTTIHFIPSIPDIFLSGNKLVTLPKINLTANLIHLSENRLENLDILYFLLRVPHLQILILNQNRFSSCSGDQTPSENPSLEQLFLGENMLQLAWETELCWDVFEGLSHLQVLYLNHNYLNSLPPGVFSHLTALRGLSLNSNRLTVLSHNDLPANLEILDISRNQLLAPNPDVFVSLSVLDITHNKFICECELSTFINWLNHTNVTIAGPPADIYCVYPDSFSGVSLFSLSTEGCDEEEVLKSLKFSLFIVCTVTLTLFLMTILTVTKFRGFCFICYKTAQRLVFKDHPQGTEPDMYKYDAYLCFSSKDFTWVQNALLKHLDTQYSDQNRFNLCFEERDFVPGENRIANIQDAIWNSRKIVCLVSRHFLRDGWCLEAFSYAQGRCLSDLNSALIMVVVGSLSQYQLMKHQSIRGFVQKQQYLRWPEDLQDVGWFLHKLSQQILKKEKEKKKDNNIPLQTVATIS

Row | Substance | EC50 of TLR5-dependent NF-κB stimulating activity, HEK-Blue hTLR5 reporter cells
1 | PNGase F-treated (deglycosylated) eFlaB (natural protein) | 3.88 nM
2 | eukaryotic-expressed Vibrio vulnificus FlaB (eFlaB) (natural protein) | 13.8 nM
3 | prokaryotic-expressed Vibrio vulnificus FlaB (pFlaB) (natural protein) | 3.32 nM
